Targets include Cf2-PBD-VP64 (human) (UniProt P06401); ER-VP64 (mouse) (UniProt P19785); ER-KRAB (mouse; human) (UniProt P19785).
Assay in all cases: cell-based or functional assay

Drawing on patent US7329728, this text covers ligand-dependent change in transcription of a C7-Cf2 TATA luciferase reporter, erbB-2 promoter luciferase activity in HeLa cells, on addition of Tamoxifen and tamoxifen-dependent repression of the erbB-2 promoter (luciferase) for two substances.

Chain of ER-VP64 (mouse) (P19785 282-599 G525R): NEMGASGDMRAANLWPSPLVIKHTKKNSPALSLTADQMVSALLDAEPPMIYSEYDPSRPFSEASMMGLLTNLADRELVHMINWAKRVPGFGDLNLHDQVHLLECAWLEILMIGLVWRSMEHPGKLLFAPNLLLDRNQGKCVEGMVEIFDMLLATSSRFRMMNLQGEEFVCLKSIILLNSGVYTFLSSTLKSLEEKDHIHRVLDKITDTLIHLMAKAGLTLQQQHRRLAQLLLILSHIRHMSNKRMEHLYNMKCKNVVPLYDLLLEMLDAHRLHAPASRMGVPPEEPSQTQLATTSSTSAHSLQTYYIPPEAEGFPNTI
Chain of C7-PBD-VP64 (P06401 640-914): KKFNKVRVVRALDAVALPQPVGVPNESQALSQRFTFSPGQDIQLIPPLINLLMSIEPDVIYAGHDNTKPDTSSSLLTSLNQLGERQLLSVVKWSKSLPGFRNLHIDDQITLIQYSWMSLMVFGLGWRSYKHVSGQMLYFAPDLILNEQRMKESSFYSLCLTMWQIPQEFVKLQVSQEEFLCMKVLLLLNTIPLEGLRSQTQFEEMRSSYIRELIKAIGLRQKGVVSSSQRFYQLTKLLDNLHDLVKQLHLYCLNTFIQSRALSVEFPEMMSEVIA
Chain of Cf2-PBD-VP64 (human) (P06401 640-914): as above
Chain of ER-KRAB (mouse; human) (P19785 other isoform, or with tags, fused parts or gaps): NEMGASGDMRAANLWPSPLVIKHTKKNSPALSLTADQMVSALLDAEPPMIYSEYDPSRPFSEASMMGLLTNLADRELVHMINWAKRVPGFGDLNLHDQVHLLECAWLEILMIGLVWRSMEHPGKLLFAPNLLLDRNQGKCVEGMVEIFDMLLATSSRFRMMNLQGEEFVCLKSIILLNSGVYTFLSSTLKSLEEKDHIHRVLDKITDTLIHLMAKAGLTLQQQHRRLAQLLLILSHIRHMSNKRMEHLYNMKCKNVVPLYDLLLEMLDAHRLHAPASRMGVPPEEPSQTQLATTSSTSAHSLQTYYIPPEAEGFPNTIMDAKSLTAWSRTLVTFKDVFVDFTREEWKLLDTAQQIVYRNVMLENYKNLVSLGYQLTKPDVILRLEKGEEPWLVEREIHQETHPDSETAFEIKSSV

“C7-PBD-VP64 (from UniProt P06401 640-914)”: the ligand-dependent change in transcription of a C7-Cf2 TATA luciferase reporter with Cf2-PBD-VP64 (human) is 2 fold. Turning to E2C-ER (from UniProt P19785 282-599), the erbB-2 promoter luciferase activity in HeLa cells, on addition of Tamoxifen with ER-VP64 (mouse) turned out to be 3 fold. The tamoxifen-dependent repression of the erbB-2 promoter (luciferase) with ER-KRAB (mouse; human) was determined as 2.9 fold.
